# From patent US11319369B2, “Motor control function improving agent” (Kao Corporation, priority 2016, dated 2022)
# T1: GIP(3-42) (Homo sapiens, UniProt P09681)
# T1 sequence (P09681 54-93): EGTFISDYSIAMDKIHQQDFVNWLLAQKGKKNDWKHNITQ
# T2: GIP(1-42) (Homo sapiens, UniProt P09681)
# T2 sequence (P09681 52-93): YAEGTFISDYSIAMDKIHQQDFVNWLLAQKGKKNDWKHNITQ
# B1: monoclonal antibody prepared in Production Example 1: Mouse monoclonal anti-active GIP antibody produced by hybridoma 9B9H5-B9 line; H-chain variable region SEQ ID NO: 2, L-chain variable region SEQ … (antibody, listed as Mus musculus, V domains shown)
# VH: QVQLQQPGAELVKPGASVKLSCKASGYTFTSFWMHWVIQRPGQGLEWIGEMNPSDGRTHFNEKFKTKATLTIDTSSNTAYMELNSLTSEDSAVYYCARRMEDWGQGTLVTVSA
# VL: DIKMTQSPSSMYASLGERVTITCKASQDINSYLGWFQQKPGKSPKTLIYGANRLVDGVPSRFSGSGSGQDYSLTISSLEYDDMGIYYCLQYDEFPLTFGAGTKLELKR
# Key:
# [1] = system: leptin receptor deficient C57BLKS/J male mice (db/db mice); experiment: Rotarod (motor control function) test after 28-day administration of GIP or GIP-binding anti-GIP antibody; assay type: in vivo, mouse; conditions: intraperitoneal daily for 28 days, GIP 5 nmol/kg, anti-GIP antibody 1 mg/kg, rotarod 6-28 rpm, compared to control group, FIG. 2
# Experimental: Six-week-old leptin receptor deficient C57BLKS/J male mice (db/db mice, Oriental Yeast Co., Ltd.) were transferred (room temperature: 23° C., humidity: 55±10%, light period: 7:00 to 19:00) and were fed with food and water ad libitum. The food was CE-2 (CLEA Japan, Inc.), and the mice were acclimated for 2 weeks under the above-mentioned environment and were then used for testing.
# Mouse-derived GIP (manufactured by AnaSpec, Inc.) was dissolved in physiological saline at a concentration of 500 nM to give a GIP solution. […]
# Physiological saline (control group), the GIP solution (5 nmol/kg body weight). […] After administration for 28 days, the motor control function was measured by a rotarod test.
# The motor control function (the accommodation ability reflecting balance ability and agility) was evaluated by measuring the capacity of staying on a rod rotating at various speeds using a rotarod (MK-600A, manufactured by Muromachi Kikai Co., Ltd.). Each mouse was placed on a stationary rod, and the number of times of falling was measured with a program of 6 rpm (1 min)→12 rpm (1 min)→16 rpm (1 min)→20 rpm (1 min)→24 rpm (1 min)→28 rpm (1 min). […]
# GIP(3-42) = biological target: T1, GIP(3-42); experiment: Sandwich ELISA, cross-reactivity with inactive GIP; assay type: binding; conditions: biotinylated antibody 1 μg/mL as detection antibody; GIP 8.2 to 2000 pg/mL; FIG. 1
# Experimental: (§1) The reactivity between the monoclonal antibody prepared in Production Example 1 and active GIP was confirmed by ELISA. The amino group of the anti-active GIP monoclonal antibody was biotinylated with NH2 group biotinylation kit (manufactured by Dojindo Laboratories). ELISA was performed using the produced biotinylated anti-active GIP monoclonal antibody at 1 μg/mL instead of a detection antibody, GIP detection antibody (biotinylated anti-total GIP monoclonal antibody), included in Human (total) GIP ELISA kit (manufactured by EMD Millipore Corporation). A […] dilution series of GIP(1-42) or GIP(3-42) was prepared in 6 steps (8.2 to 2000 pg/mL) with a 2000 pg/mL solution as the highest concentration. By using an anti-total GIP monoclonal antibody (included in Human GIP (total) ELISA kit manufactured by EMD Millipore Corporation) as a capture antibody, the biotinylated anti-active GIP monoclonal antibody as a detection antibody, and a peroxidase-streptavidin conjugate for detection, sandwich ELISA was conducted to prepare a calibration curve with GIP concentration on the X-axis and 450 nm-590 nm absorbance on the Y-axis (FIG. 1).
# [2] = biological target: T3, PEGylated N-terminus 15 amino acids of active GIP (GIP(1-15)) (Homo sapiens, UniProt P09681); experiment: Hybridoma screening ELISA with immobilized antigen (1); assay type: binding; conditions: hybridoma culture supernatant
# T3 construct: PEGylated N-terminus 15 amino acids of active GIP (GIP(1-15)) was used as an antigen (1) for measurement; made in house; host or cells: synthetic peptide (no expression host)
# Experimental: (§2) Polyethylene glycol was added to N-terminus 15 amino acids of active GIP (GIP(1-15)) (PEGylation (polyethylene glycolation)), and keyhole limpet hemocyanin (KLH) was then chemically bonded thereto to produce KLH-linked PEGylated GIP (1-15) as an immunogen.
# (§3) The reaction between the hybridoma culture supernatant and the antigen (1) and (2) for measurement was evaluated by ELISA using immobilized antigen (1) and (2), and hybridomas that are positive for the antigen (1) and negative for the antigen (2) were selected as anti-active GIP monoclonal antibody-producing hybridomas.
# (§4) Antibody-producing hybridoma was cloned by culturing the hybridomas obtained above through a limiting dilution method to obtain single colonies, and single colony-forming wells were subjected to ELISA again to establish 9B9H5-B9 line, which produces an antibody that is positive for the antigen (1) and negative for the antigen (2) (WO 2016/104439).
# [3] = biological target: T4, PEGylated N-terminus 13 amino acids of inactive GIP (GIP(3-15)) (Homo sapiens, UniProt P09681); experiment: Hybridoma screening ELISA with immobilized antigen (2); assay type: binding; conditions: hybridoma culture supernatant
# T4 construct: made in house; host or cells: synthetic peptide (no expression host)
# Experimental: as §2, §3, §4
# [4] = system: aged C57BL/6J male mice (115-week-old); experiment: Rotarod (motor control function) test in aged mice given anti-GIP antibody; assay type: in vivo, mouse; conditions: C57BL/6J mice, 0.5 mg/kg intraperitoneal once a week, tested at 115-week-old, FIG. 4
# Experimental: Four-week-old C57BL/6J male mice (CLEA Japan, Inc.) were transferred (room temperature: 23° C., humidity: 55±10%, light period: 7:00 to 19:00) and were fed with food (D12450K, Research Diets, Inc.) and water ad libitum for 111 weeks.
# The anti-active GIP antibody produced in Production Example 1 was dissolved in physiological saline at a concentration of 0.05 mg/mL to give an anti-GIP antibody solution.
# Physiological saline (control group) or the anti-GIP antibody solution (0.5 mg/kg body weight) (anti-GIP antibody administration group) was intraperitoneally administered to C57BL/6J mice (107-week-old) once a week (9:00 to 10:00 a.m.), 8 times (8 weeks) in total.
# The motor control function (the accommodation ability reflecting balance ability and agility) was evaluated by measuring the capacity of staying on a rod rotating at various speeds using a rotarod (MK-600A, manufactured by Muromachi Kikai Co., Ltd.). The test was performed for 50-week-old mice (non-administration group) and 115-week-old mice (non-administration group, control group, and anti-GIP antibody administration group). Each mouse was placed on a stationary rod, and the number of times of falling was measured with a program of 6 rpm (1 min)→12 rpm (1 min)→16 rpm (1 min)→20 rpm (1 min)→24 rpm (1 min)→28 rpm (1 min).
# The analysis results were shown as the average value (Ave.)±standard error (SE). […]
# GIP(1-42) = biological target: T2, GIP(1-42); experiment: Sandwich ELISA, reactivity with active GIP; assay type: binding; conditions: biotinylated antibody 1 μg/mL as detection antibody; GIP 8.2 to 2000 pg/mL; FIG. 1
# Experimental: as §1
Molecule,decrease in the motor control function (increase in the number of times of falling with an increase of the rotation speed) [1],cross-reactivity with GIP(3-42) (450 nm-590 nm absorbance) (GIP(3-42)),ELISA reaction with antigen (1) [2],ELISA reaction with antigen (2) [3],"motor control function (number of times of falling) compared to non-administration and control 115-week-old groups ([4]; 8 times from 107-week-old, rotarod 6-28 rpm)",motor control function relative to the non-administration (50-week-old) group ([4]; 8 times),reactivity with GIP(1-42) (450 nm-590 nm absorbance) (GIP(1-42))
"GIP: Mouse-derived GIP (manufactured by AnaSpec, Inc.), gastric inhibitory polypeptide, dissolved in physiological saline at 500 nM (YAEGTFISDYSIAMDKIRQQDFVNWLLAQRGKKSDWKHNITQ)",significant decrease,,,,,,
B1,,does not show cross-reactivity,positive,negative,improvement in the motor control function was observed,equivalent to that of the non-administration (50-week-old) group,capable of specifically detecting GIP(1-42)
